± gives the uncertainty stated by the source.
Test: self-splicing fitness, log relative to wild type (ln ratio); higher = more splicing; Tetrahymena group I intron in knt gene, E. coli kanamycin selection, DiMSum; sequences stand for … in CUCUCU…GGAGGGAAAAGUUAUCAGGCAUGCACCUGGUAGCUAGUCUUUAAACCAAUAGAUUGCAUCGGUUUAAAAGGCAAGACCGUCAAAUUGCGGGAAAGGGGUCAACAGCCGUUCAGUACCAAGUCUCAGGGGAAACUUUGAGAUGGCCUUGCAAAGGGUAUGGUAAUAAGCUGACGGACAUGGUCCUAACCACGCAGCCAAGUCCUAAGUCAACAGAUCUUCUGUUGAUAUGGAUGCAGUUCACAGACUAAAUGUCGGUCGGGGAAGAUGUAUUCUUCUCAUAAGAUAUAGUCGGACCUCUCCUUAAUGGGAGCUAGCGGAUGAAGUGAUGCAACACUGGAGCCGCUGGGAACUAAUUUGUAUGCGAAAGUAUAUUGAUUAGUUUUGGAGUACUCGUGGUCG
Summary of the method: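 Six replicate transformations of E. coli BL21(DE3) with a pET-22b(+) library were grown overnight at 37°C or 30°C. The library randomised all eight P1ex-region intron nucleotides, the intron lying in the knt kanamycin-resistance gene, and plates were LB agar with or without 25 μg/mL kanamycin plus 100 μg/mL carbenicillin, 50 μM IPTG and 0.2% rhamnose. Pooled colonies were amplicon-sequenced on an Illumina HiSeq 2500, and fitness is the DiMSum error-weighted combination of wild-type-normalised replicate fold changes, kanamycin versus none.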

| Sequence | self-splicing fitness (ln) (30 °C) | self-splicing fitness (ln) (37 °C) |
| --- | --- | --- |
| CUCGAGCAAUAUUACGAGAG | -1.71 ± 0.28 |  |
| CUCGAGCAAUAUUACGAUGU |  | -2.06 ± 0.3 |
| CUCGAGCAAUAUUACGCACC |  | -2.08 ± 0.32 |
| CUCGAGCAAUAUUACGCCAU | -2.93 ± 0.48 | -1.94 ± 0.35 |
| CUCGAGCAAUAUUACGCUCG | -2.72 ± 0.42 |  |
| CUCGAGCAAUAUUACGGACA | -2.98 ± 0.33 | -1.35 ± 0.29 |
| CUCGAGCAAUAUUACGGGCU | -3.17 ± 0.23 | -3.24 ± 0.42 |
| CUCGAGCAAUAUUACGGGGA | -2.71 ± 0.2 | -1.17 ± 0.18 |
| CUCGAGCAAUAUUACGGGUA | -4.2 ± 0.39 | -1.81 ± 0.16 |
| CUCGAGCAAUAUUACGGUAA | -3.49 ± 0.25 | -1.88 ± 0.24 |
| CUCGAGCAAUAUUACGGUCG | -3.59 ± 0.28 | -2.38 ± 0.34 |
| CUCGAGCAAUAUUACGGUUC | -3.14 ± 0.22 | -2.49 ± 0.3 |
| CUCGAGCAAUAUUACGUAUG | -2.93 ± 0.14 | -1.2 ± 0.13 |
| CUCGAGCAAUAUUACGUCUU | -4.4 ± 0.21 | -3.37 ± 0.21 |
| CUCGAGCAAUAUUACGUGUU | -2.06 ± 0.16 | -1.97 ± 0.19 |
| CUCUAGCAAUAUUACGAACU |  | -4.2 ± 0.42 |
| CUCUAGCAAUAUUACGAUUA | -3.01 ± 0.29 | -2.85 ± 0.25 |
| CUCUAGCAAUAUUACGAUUU | -3.27 ± 0.19 | -3.01 ± 0.3 |
| CUCUAGCAAUAUUACGCAAG | -3.98 ± 0.27 | -1.95 ± 0.2 |
| CUCUAGCAAUAUUACGCAUU | -4.34 ± 0.39 | -4 ± 0.39 |
| CUCUAGCAAUAUUACGCGCG | -3.15 ± 0.27 | -2.86 ± 0.28 |

| Sequence | self-splicing fitness (ln) (30 °C) | self-splicing fitness (ln) (37 °C) |
| --- | --- | --- |
| CUCUAGCAAUAUUACGGAAA | -3.74 ± 0.3 | -3.54 ± 0.23 |
| CUCUAGCAAUAUUACGGAAC | -2.81 ± 0.47 |  |
| CUCUAGCAAUAUUACGGAUC | -3.4 ± 0.21 | -3.33 ± 0.33 |
| CUCUAGCAAUAUUACGGAUG | -1.32 ± 0.092 | -0.418 ± 0.13 |
| CUCUAGCAAUAUUACGGAUU | -3.5 ± 0.21 | -2.75 ± 0.18 |
| CUCUAGCAAUAUUACGGCCG | -2.41 ± 0.22 | -2.2 ± 0.23 |
| CUCUAGCAAUAUUACGGCUA | -2.32 ± 0.26 | -1.28 ± 0.24 |
| CUCUAGCAAUAUUACGGGGC | -2.81 ± 0.27 | -2.64 ± 0.41 |
| CUCUAGCAAUAUUACGGGGU | -3.87 ± 0.25 | -3.39 ± 0.32 |
| CUCUAGCAAUAUUACGUAAC | -3.47 ± 0.29 |  |
| CUCUAGCAAUAUUACGUAGA | -3.49 ± 0.27 | -1.6 ± 0.17 |
| CUCUAGCAAUAUUACGUAGG | -2.83 ± 0.18 | -1.9 ± 0.22 |
| CUCUAGCAAUAUUACGUUGU | -3.36 ± 0.2 | -3.68 ± 0.31 |
| CUGAAGCAAUAUUACGAACG | 0.17 ± 0.13 | 0.661 ± 0.17 |
| CUGAAGCAAUAUUACGAACU | -3.64 ± 0.19 | -2.37 ± 0.23 |
| CUGAAGCAAUAUUACGACAU | -0.393 ± 0.012 | 0.115 ± 0.033 |
| CUGAAGCAAUAUUACGACCA | -4.88 ± 0.41 | -1.22 ± 0.18 |
| CUGAAGCAAUAUUACGACGA | -1.04 ± 0.097 | -0.00885 ± 0.14 |
| CUGAAGCAAUAUUACGAGUA | -3.67 ± 0.28 | -2.63 ± 0.3 |
| CUGAAGCAAUAUUACGAGUG | 0.0379 ± 0.053 | 0.068 ± 0.084 |
| CUGAAGCAAUAUUACGAUUG | 0.168 ± 0.099 | -0.000234 ± 0.12 |

| Sequence | self-splicing fitness (ln) (30 °C) | self-splicing fitness (ln) (37 °C) |
| --- | --- | --- |
| CUGAAGCAAUAUUACGCCAG | -3.75 ± 0.29 | -1.17 ± 0.21 |
| CUGAAGCAAUAUUACGCCUG | -0.0552 ± 0.12 | 0.982 ± 0.16 |
| CUGAAGCAAUAUUACGCCUU | -4.07 ± 0.33 | -2.33 ± 0.31 |
| CUGAAGCAAUAUUACGGGCC | -3.65 ± 0.32 |  |
| CUGAAGCAAUAUUACGGGCG | 0.0611 ± 0.06 | -0.103 ± 0.074 |
| CUGAAGCAAUAUUACGUAAC |  | -1.22 ± 0.24 |
| CUGAAGCAAUAUUACGUACC | -3.37 ± 0.36 |  |
| CUGAAGCAAUAUUACGUAGC | -4.07 ± 0.28 | -3.43 ± 0.24 |
| CUGAAGCAAUAUUACGUAUA | -2.8 ± 0.18 | -2.19 ± 0.27 |
| CUGAAGCAAUAUUACGUCAU | -1.03 ± 0.093 | -0.736 ± 0.12 |
| CUGAAGCAAUAUUACGUCCA | -1.93 ± 0.25 |  |
| CUGAAGCAAUAUUACGUCGC | -3.18 ± 0.16 | -1.55 ± 0.22 |
| CUGAAGCAAUAUUACGUGCA | -3.96 ± 0.27 | -2.82 ± 0.25 |
| CUGAAGCAAUAUUACGUGGC | -1.58 ± 0.077 | -0.491 ± 0.099 |
| CUGAAGCAAUAUUACGUGUG | -0.196 ± 0.046 | -0.0989 ± 0.067 |
| CUGCAGCAAUAUUACGAACG | 0.237 ± 0.087 | -0.269 ± 0.08 |
| CUGCAGCAAUAUUACGAAGA | -1.62 ± 0.23 | -2.17 ± 0.27 |
| CUGCAGCAAUAUUACGAAUG | -0.593 ± 0.066 | -0.0469 ± 0.081 |
| CUGCAGCAAUAUUACGAUCA | -3.57 ± 0.29 | -2.5 ± 0.2 |
| CUGCAGCAAUAUUACGAUUC |  | -2.05 ± 0.2 |
| CUGCAGCAAUAUUACGCAUC |  | -2.46 ± 0.3 |

| Sequence | self-splicing fitness (ln) (30 °C) | self-splicing fitness (ln) (37 °C) |
| --- | --- | --- |
| CUGCAGCAAUAUUACGCCAA |  | -1.67 ± 0.18 |
| CUGCAGCAAUAUUACGCCCG | -0.269 ± 0.098 | 0.148 ± 0.13 |
| CUGCAGCAAUAUUACGCCGG | -2.55 ± 0.19 | -1.56 ± 0.29 |
| CUGCAGCAAUAUUACGCGGC |  | -2.63 ± 0.34 |
| CUGCAGCAAUAUUACGCGUC | -3.98 ± 0.35 | -2.05 ± 0.32 |
| CUGCAGCAAUAUUACGCUGC | -2.88 ± 0.29 |  |
| CUGCAGCAAUAUUACGGAUA | -3.58 ± 0.29 | -2.69 ± 0.25 |
| CUGCAGCAAUAUUACGGAUU | -3.49 ± 0.18 | -1.8 ± 0.16 |
| CUGCAGCAAUAUUACGGCUU | -4.37 ± 0.36 | -2.23 ± 0.28 |
| CUGCAGCAAUAUUACGGGCU | -4.01 ± 0.17 | -1.81 ± 0.17 |
| CUGCAGCAAUAUUACGUACC | -3.22 ± 0.19 | -2.68 ± 0.44 |
| CUGCAGCAAUAUUACGUAGC | -2.66 ± 0.15 | -1.95 ± 0.18 |
| CUGCAGCAAUAUUACGUCUU | -3.15 ± 0.11 | -2.64 ± 0.12 |
| CUGCAGCAAUAUUACGUGUG | -1.65 ± 0.043 | -1.27 ± 0.06 |
| CUGCAGCAAUAUUACGUUAG | -2.97 ± 0.1 | -1.19 ± 0.1 |
| CUGCAGCAAUAUUACGUUGA | -3.42 ± 0.2 | -3.21 ± 0.24 |
| CUGCAGCAAUAUUACGUUGG | -2.82 ± 0.14 | -3.09 ± 0.27 |
| CUGCAGCAAUAUUACGUUUG | -2.61 ± 0.094 | -0.958 ± 0.098 |

From the supplement of paper PMC7877785
